{
  "source": "paper PMC2992962",
  "about": "(Protein expression and purification, 2010)",
  "proteins": {"B1": {"name": "recombinant human his-GAPDHS (sperm-specific glyceraldehyde-3-phosphate dehydrogenase lacking the proline-rich N-terminal sequence) (enzyme)", "chain": "MVSVARELTVGINGFGRIGRLVLRACMEKGVKVVAVNDPFIDPEYMVYMFKYDSTHGRYKGSVEFRNGQLVVDNHEISVYQCKEPKQIPWRAVGSPYVVESTGVYLSIQAASDHISAGAQRVVISAPSPDAPMFVMGVNENDYNPGSMNIVSNASCTTNCLAPLAKVIHERFGIVEGLMTTVHSYTATQKTVDGPSRKAWRDGRGAHQNIIPASTGAAKAVTKVIPELKGKLTGMAFRVPTPDVSVVDLTCRLAQPAPYSAIKEAVKAAAKGPMAGILAYTEDEVVSTDFLGDTHSSIFDAKAGIALNDNFVKLISWYDNEYGYSHRVVDLLRYMFSRDK"}},
  "biological_target": "the molecule itself",
  "assay": "SEC",
  "data": [
    {"protein": "B1", "values": [
      {"measurement": "stoichiometry N", "result": 4}
    ]}
  ]
}
